# Results taken from patent US20230265187A1 (published 2023).
# Where a chain is given by its changes, count along the chain named.
# T1: his-tagged murine TIGIT (Acro Biosystems #TIT-M52E6) (murine, UniProt P86176 29-148, limits assumed)
# T1 construct: Bought protein; also called mouse his-tagged TIGIT; not shown: his tag
# T1 sequence (looked up): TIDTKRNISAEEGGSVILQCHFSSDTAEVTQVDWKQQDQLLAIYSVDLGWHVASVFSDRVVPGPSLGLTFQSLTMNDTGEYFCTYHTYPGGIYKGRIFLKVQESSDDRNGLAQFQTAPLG
# T2: his-tagged human TIGIT (Acro Biosystems #TIT-H52H3) (human, UniProt Q495A1 22-141)
# T2 construct: Bought protein; also called His-tagged-TIGIT (human); not shown: his tag
# T2 sequence (looked up): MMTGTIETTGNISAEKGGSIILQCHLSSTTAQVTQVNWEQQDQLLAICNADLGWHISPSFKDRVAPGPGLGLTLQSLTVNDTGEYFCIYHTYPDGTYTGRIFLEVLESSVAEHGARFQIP
# T3: human TIGIT on Jurkat cells (TIGIT/NFAT reporter Jurkat cells, BPS Bioscience #60538); Promega TIGIT Effector … (human, UniProt Q495A1 22-244)
# T3 construct: whole, on cells; Same protein on two bought Jurkat lines (flow cytometry: BPS; bioassay: Promega); also called hu TIGIT cells; cells expressing human TIGIT
# T3 sequence (looked up): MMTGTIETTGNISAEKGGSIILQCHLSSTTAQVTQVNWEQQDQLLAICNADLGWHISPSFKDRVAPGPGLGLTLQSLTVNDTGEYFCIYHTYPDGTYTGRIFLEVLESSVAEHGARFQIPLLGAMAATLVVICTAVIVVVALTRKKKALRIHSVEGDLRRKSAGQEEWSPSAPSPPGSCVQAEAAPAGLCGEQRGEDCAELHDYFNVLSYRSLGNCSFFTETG
# B1: 43586p1.2.B2 (scFv, V domains shown)
# VH: EMQLLESGGGLVQPGGSLRLSCAASGFTFDDYVMSWVRQAPGKGLEWVSLINWNGDKTYYADSVKGRFTISRDNSKNTLYLQMNSLRAEDTAIYYCAKHWIVFQYGMDVWGQGTTVTVSS
# VL: QSVLTQPPSASGTPGQRVTISCSGSISNIETKYVSWYQQLPGTAPKLLIYNSDQRPSGVPDRFSGSKSGTSASLAISGLQSEDEADYYCVSWDASLKSWVFGGGTKLTVL
# B2: 43586p1.2.G4 (scFv, V domains shown)
# VH: B1 VH with M2V, I93V, K98R, M107L
# VL: B1 VL with P8L, S25V, I26S, T31I, D53H, V90T, A94D, S95R
# B3: 43586p1.2.E2 (scFv, V domains shown)
# VH: EVQLLESGGGLVQPGGSLRLSCAASGFTFTSYLMSWVRQAPGKGLEWVSTITWDGDRTYYADSVKGRFTISRDNSKNTLYLQMNSLRVGDTAVYYCAKHWTVFQYGMDVWGQGTTVTVSS
# VL: B1 VL with P8A, S25T, N51G, S52N, D53H, V90A, D93E, A94N, S95D
# B4: 43586p1.2.F9 (scFv, V domains shown)
# VH: B1 VH with M2V, Q112R
# VL: B1 VL
# B5: 43586p1.2.E4 (scFv, V domains shown)
# VH: B3 VH with T30S, S31D, S35T, V88A, G89E
# VL: B1 VL with S25T, T31I, N51G, S52N, D53H, V90S, D93E, A94N, S95D
# B6: 43586p2.D11 (scFv, V domains shown)
# VH: B1 VH with M2V, N54S, D56G, K57T, I93V, F103Y
# VL: QSVLTQPSSASGTPGQRVAISCSGTISNIETKYVSWYKYVSWYQQLPGTAPKLLIYNNVQRPSGVPDRFSGSQSGTSASLAISGLQSEDEAHYYCASWEGGLNSWVFGGGTKLTVL
# B7: 43586p1.2.E1 (scFv, V domains shown)
# VH: B3 VH with T30S, S31D, S35T, G44E, V88A, G89E
# VL: B1 VL with S25T, T31I, N51G, S52N, D53H, V90S, D93E, A94N, S95D
# B8: 43586p2.G10 (scFv, V domains shown)
# VH: B1 VH with M2V, N54S, D56G, K57T, I93V, F103Y
# VL: B6 VL with A19T
# B9: 43586p1.2.G10 (scFv, V domains shown)
# VH: B1 VH with M2V, G44E, Y59C
# VL: B1 VL
# B10: 43586p1.2.C11 (scFv, V domains shown)
# VH: B1 VH with M2V, Y60C
# VL: B1 VL
# B11: 43645p1.F11 (scFv, V domains shown)
# VH: EVQLLESGGGLVQPGGSLRLSCAASGFTFSSYWMSWVRQAPGKGLEWVSGIHISDSTYYADSVKGRFTISRDNSKNTLYLQMNSLRAEDTAVYYCAKGHTVLQYGMDVWGQGTTVTVSS
# VL: QSGLTQPPSASGTPGQRVTISCSGDISNTRNNYVSWYQQLPGTAPKLLIYRNSQRPSGVPDRFSGSKSATSASLAISGLQSEDEADYYCGTWDNTLNAWVFGGGTKLTVL
# B12: 43645p1.D1 (scFv, V domains shown)
# VH: EVQLLESGGDLVQSGGSLRLSCAASGFSFWGYAMTWVRQAPGKGLEWVSTIAGNSYTYYADSVKGRFTISRDNSKNMVYLQMNGLRAEDTAVYYCAKDRSFYNYYDIDVWGQGTTVTVSS
# VL: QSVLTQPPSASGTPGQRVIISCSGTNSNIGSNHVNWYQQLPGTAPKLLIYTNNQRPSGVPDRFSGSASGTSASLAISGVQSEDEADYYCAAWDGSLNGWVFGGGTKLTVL
# B13: 43352p1.H8 (scFv, V domains shown)
# VH: DVQLVESGGGVVRPGESLRLSCAASGFNFSTYAMNWVRQAPGEGLEWVSGISGRSSGDTTYYADSVRGWFTVSRDNSKNTLYLQMSSLRAEDTAVYYCARETWIRGYFDYWGLGTLVTVSS
# VL: QSVLTQPPSASGTPGQRVTISCSGSRSNLGNNLVYWYQQLPGTAPKLLIYFNNERPSGVPDRFSGSKSGTSASLAISGVQSEDEADYYCATWDDSLNGWVFGGGTKLTVL
# Target: T4, His-tagged cynomolgus monkey TIGIT (Acro Biosystems #TIT-05223) (cynomolgus monkey, UniProt A0A7N9I9V4 89-209)
# T4 construct: Bought protein; also called cyno TIGIT; cynomolgus TIGIT; not shown: His tag
# T4 sequence (A0A7N9I9V4 entry or part of it): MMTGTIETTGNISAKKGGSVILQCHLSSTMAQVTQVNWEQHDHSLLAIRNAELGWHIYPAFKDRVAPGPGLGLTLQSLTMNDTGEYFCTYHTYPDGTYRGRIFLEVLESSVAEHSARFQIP
# Assay: ELISA, coated His-TIGIT, 1 ug/ml
row,Elisa OD450,Binder
1,1.57 OD450,B1
2,1.88 OD450,B2
3,1.73 OD450,B3
4,1.71 OD450,B4
5,1.86 OD450,B5
6,1.6 OD450,B6
7,1.85 OD450,B7
8,1.83 OD450,B8
9,1.52 OD450,B9
10,1.81 OD450,B10
11,1.8 OD450,B11
12,1.51 OD450,B12
13,0.363 OD450,B13

# Target: T1, his-tagged murine TIGIT (Acro …)
# Assay: ELISA, coated His-TIGIT, 1 ug/ml
row,Elisa OD450,Binder
1,2.01 OD450,B1
2,2.04 OD450,B2
3,1.78 OD450,B3
4,2.14 OD450,B4
5,2.03 OD450,B5
6,1.61 OD450,B6
7,2.11 OD450,B7
8,2.23 OD450,B8
9,2.1 OD450,B9
10,2.01 OD450,B10
11,1.85 OD450,B11
12,0.047 OD450,B12
13,1.85 OD450,B13

# Target: T2, his-tagged human TIGIT (Acro Biosystems …)
# Assay: ELISA, coated His-TIGIT, 1 ug/ml
row,Elisa OD450,Binder
1,2.06 OD450,B1
2,2.02 OD450,B2
3,2.02 OD450,B3
4,2 OD450,B4
5,2.09 OD450,B5
6,2.01 OD450,B6
7,2.25 OD450,B7
8,2.21 OD450,B8
9,1.99 OD450,B9
10,2.03 OD450,B10
11,2.03 OD450,B11
12,2.02 OD450,B12
13,1.8 OD450,B13

# Target: T4, His-tagged cynomolgus monkey TIGIT …
# Assay: SPR (Carterra LSA), scFv-Fc captured, His-TIGIT analyte
# How it was run: (§1)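 SPR: scFv-Fc from supernatants (diluted 30-fold in HBSTE) captured on anti-human Fc-coupled HC30M chip; His-tagged TIGIT injected as 1:2 dilution series. Kinetic affinities fitted from sensorgrams.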
row,Kd,Binder
1,14.3 nM,B1
2,3.19 nM,B2
3,9.5 nM,B3
4,12.2 nM,B4
5,25.4 nM,B5
6,87.4 nM,B6
7,6.27 nM,B7
8,14 nM,B9
9,2.56 nM,B10
10,33 nM,B11
11,17.6 nM,B12
12,120 nM,B13

# Target: T1, his-tagged murine TIGIT (Acro …)
# Assay: as above
# How it was run: as §1
row,Kd,Binder
1,3.28 nM,B1
2,6.89 nM,B2
3,122 nM,B3
4,4.95 nM,B4
5,66.5 nM,B5
6,41.4 nM,B6
7,7.34 nM,B7
8,3.05 nM,B8
9,15.6 nM,B9
10,1.45 nM,B10
11,235 nM,B11
12,1.14 nM,B13

# Target: T2, his-tagged human TIGIT (Acro Biosystems …)
# Assay: as above
# How it was run: as §1
row,Kd,Binder
1,0.245 nM,B1
2,0.394 nM,B2
3,0.0486 nM,B3
4,0.338 nM,B4
5,0.117 nM,B5
6,0.558 nM,B6
7,0.029 nM,B7
8,0.267 nM,B8
9,0.941 nM,B9
10,0.0517 nM,B10
11,0.322 nM,B11
12,0.343 nM,B12
13,0.194 nM,B13

# Target: T3, human TIGIT on Jurkat cells (TIGIT/NFAT …)
# Assay: flow cytometry, TIGIT/NFAT Jurkat cells, 10 ug/ml
row,MFI,Binder
1,9270 MFI,B1
2,9340 MFI,B2
3,9320 MFI,B3
4,9110 MFI,B4
5,9550 MFI,B5
6,9530 MFI,B6
7,9480 MFI,B7
8,9400 MFI,B8
9,10100 MFI,B9
10,9550 MFI,B10
11,10900 MFI,B11
12,9250 MFI,B12
13,10300 MFI,B13

# Target: T3, human TIGIT on Jurkat cells (TIGIT/NFAT …)
# Assay: cell-based or functional assay
row,max. signal (% of 22G2),Binder
1,121 % of 22G2,B1
2,101 % of 22G2,B2
3,125 % of 22G2,B3
4,127 % of 22G2,B4
5,113 % of 22G2,B5
6,102 % of 22G2,B6
7,111 % of 22G2,B7
8,99 % of 22G2,B8
9,96 % of 22G2,B9
10,106 % of 22G2,B10
11,100 % of 22G2,B11
12,111 % of 22G2,B12
13,96 % of 22G2,B13

# Target: T4, His-tagged cynomolgus monkey TIGIT …
# Assay: SPR (Carterra LSA), scFv-Fc captured, His-TIGIT analyte; repeat
# Description: (§2) Binding affinities of anti-TIGIT antibodies to human, cyno, and murine TIGIT were measured by Surface Plasmon Resonance (SPR) on a Carterra LSA instrument. Goat anti-human Fc antibody was amine coupled to a HC30M chip. ScFv-Fc supernatants were diluted 30-fold with HBSTE and were captured by the anti-human Fc coupled HC30M chip. A 1:2 dilution series of his-tagged human TIGIT, starting at 400 nM, was injected onto the chip for binding. A dilution series was also carried out for cyno TIGIT and murine TIGIT. Data were analyzed using the Carterra™ Kinetics software.
row,Kd,Binder
1,1.8 nM,B1
2,0.582 nM,B2
3,4.8 nM,B3
4,2 nM,B4
5,2.8 nM,B5
6,4.4 nM,B6
7,3.2 nM,B7
8,3.7 nM,B8
9,6.3 nM,B9
10,1.9 nM,B10
11,16 nM,B11
12,2.9 nM,B12
13,114 nM,B13

# Target: T1, his-tagged murine TIGIT (Acro …)
# Assay: as above
# Description: as §2
row,Kd,Binder
1,1.3 nM,B1
2,4.8 nM,B2
3,67 nM,B3
4,2.1 nM,B4
5,18 nM,B5
6,0.744 nM,B6
7,22 nM,B7
8,0.919 nM,B8
9,10 nM,B9
10,1.8 nM,B10
11,91 nM,B11
12,14 nM,B12
13,0.74 nM,B13
